This data set is described as follows: label from the status in PepcDB records.
As for “MPVKRIAVFSTTHIGFLDMLGRSDGIIGVSRPEFVNTPAVRSRIRSGAIKAIGMPFSPDVEALLNLEPDLVIAPALPAARKTDYQALVQAGIPVLVVAEWLEPSPLGRAEWIKLFGALVGKEKLARERFAAIESSYLKIAALSRNLPLEHHHHHH”, the protein production entry was “failed”.

With “MPVRRPCPGRPYRDLSSAPGTAVRAEPTTPLPPFALRTCACQTPGRDMSVNALTAVPSARSIPATSAFRGRIGCDARSGHYPVPGRYRLHLSPSCPHCLKIAVAHSLLGLEDACPVTLLPAVPDGPGGEHSALRPLYEASAHRYAGAAVAPVLSDDWSGRIVSTHAPDIMRDLARRFGGERPPLYPKGMEAEIEAVGHLCEQGINATAQRAGRADADDAERDSALGSLLRTLRSLEGRLARQDYLLGDRLTAADIELWVSLVQLDTVHRWHLDASAVHRVADHPALWAYARRLAGDPAFGAHLDLDGIARRHHAHCRGLEAAGAAVQIVEWAAHAPDRTASRQG”, the protein production result is given as “failed”.

“MPVTETIPLHETARERYLNYALSVITSRALPDIRDGLKPVQRRILFAMFDSLNLYPSKRHRKSATVVGETMGKYHPHGDKAIYDAMVRMAQSFSLRAPLVDGHGNFGSLDGDSAAAMRYTEAKLQPLAMEMLEGLRDETVDYRDNFDGSLEEPVVLPARVPNLLVNGASGIAVGMATNIPPHNLGEVVDAALHMIEEPEVDTSTLVRDHIQGPDFPTGGRILNTQDELAEIYETGSGTIEMRGAYRTKGKTRAIIESVPYGVDKSKIVEEIADHIAEENVPQLSNVRDESTDDVRIVLELKRGSDTEAAMAYLFKHTKLQKRFHVNLTCLVPTESTDVKAPKQVDLRTILRYFLDFRLDVVTRRLQNELAELEARIHILEGFETIFDALDEAIEIIRASKNKADAAQRLMHRFQLDEEQTDAILETQLYKLSQMEIEAIRDELGEKRARAEGIRRLLDDEDARWGIVKDELQDIRDEYTDERRSTLVGPGADMEYTEEDYIVDEDVHVIVTRDGWVKRQGTYSDLDAIRTRDGDEVGWALAGSTRATVGFFTNYGTCYTTRITEIPSTTGYGDPVQKLFSFDDGEHVVGVVSFDDRALPDPVPAEPSEQGELFDPDDPDAPDQPYVVAISKGGQATRFTLDGYLEPSISTGRKYMRLEDGDEVARVHLARGDENICLASHDGRALVFPVHQVSVYKGPAKGVRAIRLEDNDRVLDFALSTRARDGLTVETNNGREEIVRTTKFDATNRGAKGTLVIKRGYFAEVFPEPVEVPLHEAA”: the protein production result was “failed”.

For the sequence “MPVVECDIQTARAALADAGASFSDGNSEHELWHADLGDAHAVAYADKLVVQGGSPTDITAVVQPDRGGRVHAYFDGASRGNPGPAAVGWVLVSGDGGIVAEGGDTIGRATNNQAEYDALIAALEAAADFGFDDIELRGDSQLVEKQLTGAWDTNDPDLRRKRVRARELLTGFDDWSITHVPRATNERADALANEALDDA”, the protein production result was “failed”.

With “MPYKTKSDLPESVKHVLPSHAQDIYKEAFNSAWDQYKDKEDRRDDASREETAHKVAWAAVKHEYAKGDDDKWHKKS”, the protein production result is recorded as “not failed”.

For “MPYLAGCGAVLYVDVMPEGTLLTRGVSASPTRCGRTPPGGRGVWLLCATIFYWAVARFGMALFSLAPENITPLWLASGVGLIMCLEAGLSAVPCIALASAVANFPGLSASGGESPLLYAVLTGTADGLSAGLLAALGSRVLQGGITSVLDLLRGVVLVCLPATLIGGVAITLCLFTGGYVPRDVLCQMSFSLMAGDTLGVLLVFPLWRAWHVLPLPSRTELCWMAGVLCLCLLSIWSAFFVEGAAIHMLMPLLVLLSCNVRINGVMVVLFLTVIAVFIATAHRVGPFHMPTQGEAVMLLVSFAASTTLTTLGLSLYRHLLAQAGARATMWEQRAGIDPLTGLCNRARFDEVLLAELQRLQRQDSPLSLMMFDADHFKPYNDMYGHVAGDACLKRVAGVLRAVAHRASDVVARYGGEEFVCILPGTDRDSAYALAEKVRQGVRALAIPHVGSPVAGVLTVSAGVVTVHGCDGLDPQEVVAQVDRALYQAKGAGRDRVMVAKGAAKEGMQYGECALSGVQRLVWSEDYACGEPRIDASHRALLAKADSIMSSLGGADGLNARRACILALVDAVRMHFREEERVLAAIGYPKAGEHAVIHEALLQRGASLVAAWERGGMSLDDVVITLVHGMVMRHMLDDDSAFFEHVQQWGAGGTQP”, the protein production entry is recorded as “failed”.

Turning to “MPYTVRFTTTARRDLHKLPPRILAAVVEFAFGDLSREPLRVGKPLRRELAGTFSARRGTYRLLYRIDDEHTTVVILRVDHRADIYRR”, the protein production result is “not failed”.

As to “MQAAAARIVTIAVCPGPAAAMQDAILQALRRDAADDAVALAREWVTNAPDHAAAHRWLALALQQQGQPALALDSIDTALTLTPEDADLHLLRAGALLATRDLSAADAALSRTTALDPNQFNAYVMQAHLAVARGDLDEAERLSRTAARLAPEHPQLLAVDGVVEMRRGQDDRALSLLTRAAEQLPDDARVLFSLGFAYLQKEHFAFAERAFERVIELNPPGTALRAFIAQLAQRQGRLDDALAAMQGVLDQPDGDLPAMRRLAGEMELQAGRPDQAAAHLRLALAHWPADRRTLHALLTAWERLGAVDDARDTLDAALATSATAHDLWLARLAVEPVGGPQAQAVIERWLLAMPEHLPALEALMRVHDMQGQADEAEMVARQIVAVEPGRISGEQRIVEALLQRDPPAAIACVESLIESLPAPQQTVLRPWLGNVQDRAGQPDAAVGTWMQFHREQAQHRLPLPPQAARQPTQWPALGSIPDTVTARPLFVWGTPGSHVERLVAVMGAATPLVRGDRYGITPPSDALQSYRTLEQLASGELAPTALVEGWKAQLPRRGIDDGNVIDWLLWWDNTLLTALRPHLPEGRLAIALRDPRDMLLDWLSAGASAPLALQSPQQATDWLLIALEQLATLHERDLYPHRIIRLDGIEDDPQGISTALEQAFGLSFPLVEPRGPARLASGRWRDYRGVLGAQFDLLTLIAVRFGYPQD”, the protein production result is listed as “failed”.

For “MQAAVTVTPARLPELLLGLATVRPVFLWGAPGIGKSSLVRNFADSLGLECVSLLGTQLAPEDLIGVPQIRDGRSVFCPPESIARDEPYCLFLDELNAATPDVQKAFYSLILDRRIGNYELPKGSLVIGAGNRATDNALARPIASALVNRLTHVHLDASAKDWLVWAGENGIHPWITDHLTDRPDHLWSKPPKTEEPFSTPRSWHMLSDALHSFGQDLDEETLKVLAHGTLTPAHATAFCGYVKIVRSRFGIEAILKGEARWPSRIEDRDLLYYLAESFRGRLVKELPASKEHMSANGRQTAYRAKSLLVQLAEISVEVAQSVIASDADGNPLLPAWFLVEAARDMPRLVEARRLEHHHHHH”, the protein production entry is “failed”.

“MQAEGKRKKGDLLIILVVLIIGVGAAVPWLWNQLNPGGGNGEHERIAVITRDGKEVARINLDKVTEPQHFHYEGGIALTIVAENGKIRFLESQCPDQICVKTGSLSKPGDFAACLPAGTIVTIEGDEYE”: the protein production entry is recorded as “failed”.

With “MQAILLNFCFDFMCNYVIMSNKHFYRLGGFIMSFKIITISREFGSGGRFIGEQIAQKCGIEFYDKKIIEHVAKELGISEQIVANQGEYAPAGNIFSYAFVGRDITGVSLSDQIFNIQQKLIKDIAQKEPCVIVGRCADYILSDRDDVLNVFIEGNKPEKAARIKKLYQKSDDEVKKLLKDVDKKRSVNYRYFTDKEWGNRKNYDLVLNSSVLGYDKCIELITAAYA”, the protein production entry was “failed”.

Turning to “MQASSNGTTHTKRVRIRPFQKGIRRKRKDLMTEAENRCRLVLIVPDIADADEQARIVADALKGGDVASVIVPQYGLDDGAFQKHAEKLVPVIQDAGAAALIAGDSRVAGRAKADGLHITGNAQALSEAIDKHAPKLIVGGGNASDRHNALEIGEVRPDYIFFGKLDGDIKPEAHPKNLALGEWWASMIEIPCIVMAGTDPASALAVAETRAEFVALRLAVFGEPGRAPSIVAEINALLDEKAPRFED”, the protein production entry was “failed”.

As for “MQDEYDAADLSLGVSDVTLVGEVLDTEAVRTFDRDDGSEGRVSNLVVGDETGRVRVTLWDDQADTATDLDAGAVVEIVDGYVREREGSLELHVGDTGAVTPVPDADVSFVPLEHHHHHH”, the protein production entry is on record as “not failed”.

“MQDKYGVNHDHYCYESSDVLINLLNIRDPDELTQAEADFNLIRYSEYCSDLDELEDFDSNHFLNLHWVLFQDIYEWAGTIRDVDISKANTRFCTCSRVEPELNKAISRIPLIRFCRNKHELVALVADIFSDLNVVHPFREGNGRTTRFFFEELLHVAGYRIEWPVITKEEWVDANIHGYFGQLHKLEVIFDAAIIESLEHHHHHH”: the protein production entry was “failed”.

In the case of “MQEAPNTPTRPQAPPSAHLESPQPARTQQQSIQQMTPQSTTSSNNFLKDGAAGAVLEDQDIEEVLKALKTFDGGHVNPDTICEFFDEVWEEAAPAAPLPPAPPENVVDVPGAKPSCSGILVSGSNISQPNVIIKQEQRPWQESHAELEQQQHVISRRIEFLLRRMRKLQARAMCRHASEEVVGIMEWSARSSHKAPV”, the protein production entry is “failed”.

As to “MQEEWNPLMKNRCIIWLVTGICLTVIFQFPLKSVASSADKYANFAELAEHETEGEDYQIEYTDMGTELLILSPHGGGIEGGVSELVRAFSADYSTYLFEGIKPSQNWDLHITSNHFDEPQALKAVKEHSYVLAFHGYHDIVEHTLVGGTDTGGAKAIVRALLNKGFSAELVSPSHRLAGGNPENINNQCKTGQSIQLEISTPQREAFFSEFGLWTRASSKNETFQAYVSAVKEVLETRYK”, the protein production result is on record as “failed”.

As to “MQEKGNISIHTENIFPIIKKFLYSDHEIFLRELVSNAVDATQKLKRLAALGEYPGELGDTKVTVSVNKEAGTITITDRGIGMTAEEIKKYINQIAFSGATEFIEKYKDKTDTNQIIGHFGLGFYSAFMVSSNVEINTLSYQPNSKAAHWICDGSTEFEIKLSDKAERGSEITLHIAEDSLEFLETSRIHSILDKYCRFLPVEIEFEGEIINNPSPLWTKQPSELKDEDYIAFYKELYPMSEDPLFWIHLNVDYPFSLTGVLYFPKLKKDFEFQRNKIQLYSRQVFITDEVKDIVPEFLMLLHGVIDSPDIPLNVSRSFLQADGNVKKINSHITKKVADKLNELFNNDRAGFEAKWDDIGMFVKYGMISEEKFYDKAKNFCLLKNTDNALSTIEEYEQKIKPIQTDKNDKLVYLYSNNAVAQDIFIQAAKKKQYDVLLLDSVIDSHFLGQLESKLEKVQFKRIDSESVDKLIEKDEPKLSLLTKEQETQAEELFKKVVNNGKVIIKLEHLATDDMPVTIVISEFMRRMKDMAATSGQSMFGGFELTHEVVVNTNHPLIAKAIAAPEAEGEQLIKQTYQLGLLSQGLLQGAELSAFIERNMNALVK”, the protein production result is reported as “failed”.

“MQEKYNFGKVSSQHKNYSKIETMLRPKGFDKLDHYFRTELDIDLTDETIELLLNSVKAAFGKLFYGAEQRARWNGRDFIALADLNITKALEEHIKNFQKIEQDMGVDELLEYIAFIPPVEMNVGEDLKSEYRNIMGGLLLMHADVIKKATGERKPSREAMEFVAQIVDKVF”: the protein production result is given as “not failed”.

For the sequence “MQELLFIRLNELILLIYLFSIACYFFDFIKRFYKIRNIGFVTLGIVWVLQTISLSFYVTATNQVPLGNVFDVLFALAWLIISISIVISVIKQVNISIFLFNIIGFVFIAISTFQPMHYQGAGEKLNVINELLIVHVTFAIISYAIFAFAFVNSILYLIQFKNLKQKRFTQKYFRISSVATLEKVVFYNSLVGFLFIILSIILGAQWGINTIGMDIFVDPKVIMSVIITILYGLYLLLRVRQSISKHKLIYINIILFCLNMINLLFTSHVSDFHQWTGI”, the protein production entry was “failed”.

For “MQENHLIDIARWSERPGPRGIPSICSAHPLVIEAAMLRAHREKAPVLIEATCNQVNQDGGYTGMTPEDFTRFVGAIADRIEFPREKILLGGDHLGPNPWKHLPADEAMAKAEAMITAYAKAGFTKLHLDTSMGCAGEPTALPDATTAARAARLAAVAEDAVGGRGGVLPVYIIGTEVPIPGGALEELDTLEVTAPEAAIETVRVHRAAFEEAGAAGAFSRVVGAVVQPGVEFGNENVIAYDRARAEKLSATLGQLHGMVFEAHSTDYQTPDALRELVADGFAILKVGPGLTFALREALYGLDQIAAFLFPAARERTLAEVTEAVMREEPANWAKYYHGSAEEQRLQRHFSYSDRIRYYWPHPKAAAAVDELMSLLDGVAIPETLISQFLAGSYARVRNGEVAPQAKPLALAAVDAVLQDYFAACRV”, the protein production entry is “not failed”.
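Further: failed if final PepcDB status was selected cloned or expressed and not failed if soluble or beyond.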
